Source: patent publication US20170101474A1 (FORMUREX, published 2017)
Where no end group is shown, it is not given here.

B1: HER2-PEP22 (peptide)
peptide: TSPQGYPNDAGFLGRESTN
modifications: not fully specified
notes: Unlabelled in SPR; FITC-labelled in cell assays; also called control peptide; FITC-HER2-PEP22
B2: Pep11-auristatin E PDC (peptide)
peptide: WSGENGPGFYDYEA
modifications: also: auristatin E (as 5-benzoylpentanoic ester) joined through a maleimidocaproyl hydrazone linker to a free thiol of the peptide, thiol position not given here
B3: Pep11 (peptide)
peptide: WSGENGPGFYDYEA
modifications: not fully specified
notes: Designed cetuximab mimic peptide for EGFR; Unlabelled in SPR; also called EGFR-PEP11; FITC-Pep11
B4: Pep25 (peptide)
peptide: SGEWAYDGYEPNFG
modifications: also: FITC label in cell assays, position not given here
notes: Scrambled negative control; Unlabelled in SPR; FITC-conjugated in the cell assays; also called scrambled peptide; scrambled antibody mimic
B5: Pep6 (peptide)
peptide: WSGENGPGYFDYEA
notes: Designed cetuximab mimic peptide for EGFR, made by synthesis; also called No. 6
B6: HER2-PEP21 (peptide)
peptide: PGNDTGLSRAPENSGFTYQ
modifications: not fully specified
notes: Designed pertuzumab mimic peptide; Unlabelled in SPR; FITC-labelled in cell assays
B7: HER2-PEP7 (peptide)
peptide: VGYDTGLRAPNSVGSTKQ
modifications: not fully specified
notes: as for B6

Legend:
[1] = molecular target: HER2 on MDA-MB-361 and ZR-75-1 cells (human) (UniProt P04626); assay: flow cytometry, FITC-labelled peptide 10 µM, MDA-MB-361 cells (blank cells 4.5±0.2)
[2] = molecular target: T1, HER2 recombinant human protein (human, UniProt P04626 23-652, limits assumed); assay: SPR, HER2 immobilized, peptide as analyte, 1:1 model
T1 construct: Covalently attached to a carboxymethylated dextran SPR chip by EDC/NHS; also called HER2 protein; human epidermal growth factor receptor 2
Experimental: Then, the chip was blocked by passing EA for 8 minutes at a rate of 10 μL/min. […] Triplicate determinations were done at each concentration. The bound surface was regenerated by sequential injections of 10 mM glycine in PBST (pH 2.5).
The sensorgrams from SPR were globally treated using Scrubber 2® software where all traces were zeroed, cropped, aligned, and referenced. Kinetic constants ka and kd were determined by global fitting analyses of the titration curves using the 1:1 Lagmurian interaction model taking into account the mass transport. The equilibrium dissociation constant (KD) was calculated from the kd/ka ratio.
Both kinetic constants ka and kd were determined by global fitting analyses of the titration curves using the 1:1 Lagmurian interaction model in software Scrubber.

[3] = molecular target: HER2 on MDA-MB-361 and ZR-75-1 cells (human) (UniProt P04626); assay: flow cytometry, FITC-labelled peptide 10 µM, ZR-75-1 cells (blank cells 3.2±0.4)
[4] = molecular target: T2, EGFR on A431 and MDA-MB-468 cells (UniProt P00533 25-1210, limits assumed); assay: cell-based or functional assay
Bovine serum albumin = molecular target: T3, Bovine serum albumin (bovine, UniProt P02769 25-607); assay: SPR, BSA immobilized, peptide as analyte
T3 construct: Immobilized control protein in SPR; also called BSA

Recombinant human EGFR [5] = molecular target: T4, Recombinant human EGFR (human, UniProt P00533 25-645, limits assumed); assay: SPR, EGFR immobilized, peptide as analyte, 1:1 model
T4 construct: Immobilized by amine coupling on a carboxymethyl dextran SPR chip; also called epidermal growth factor receptor; surface-immobilized EGFR
Experimental: (§1) A carboxymethyl dextran gold sensor chip was activated by N-hydroxysuccinimide (NHS) and N-ethyl-N″-[3-(diethylamino)propyl] carbodiimide (EDC) at 25° C. using phosphate buffered saline pH 7.4 with 0.05% tween 20 as running buffer. […] Unreactive sites were blocked by flowing over the chip 1 M ethanolamine pH 8.5 at 10 μL/min for 8 minutes. […] The resulting sensograms were globally fitted using Scrubber2 software (BioLogic Software, Campbell, Australia) in a 1:1 binding model to determine the association rate (kₒₙ), dissociation rate (kd or koff), and dissociation constant KD.

Recombinant human EGFR [6] = molecular target: T4, Recombinant human EGFR; assay: SPR, EGFR immobilized
Experimental: as §1

Recombinant human EGFR [7] = molecular target: T4, Recombinant human EGFR; assay: SPR, EGFR immobilized on the chip, scrambled peptide Pep25 injected; concentrations not given
[8] = molecular target: T2, EGFR on A431 and MDA-MB-468 cells; assay: confocal microscopy of cells incubated with FITC-labelled scrambled peptide for 30 min at 37 C
Experimental: For binding/internalization studies, 5×10⁵ cells were seeded in cover slips in 6 well culture plates overnight. […] Cells were fixed with 4% paraformaldehyde and cover slips were mounted on slides which contain a drop of SlowFade®. Cells were then imaged with an inverted Leica. DMIRE2 fluorescence microscope (Leica Biosystems Richmond Inc., Richmond, USA) using a Yokogawa CSUX1 confocal scanner unit. […] Cells were then centrifuged at 500 g for 5 min. Supernatant was removed and cell pellets were re-suspended in FACS solution. The cell suspension was then analyzed on a Beckman Coulter flow cytometer and data were analyzed using the Cell Questpro. A total of 10000 events were collected monitoring FITC.

T3 sequence (P02769 25-607 limits assumed): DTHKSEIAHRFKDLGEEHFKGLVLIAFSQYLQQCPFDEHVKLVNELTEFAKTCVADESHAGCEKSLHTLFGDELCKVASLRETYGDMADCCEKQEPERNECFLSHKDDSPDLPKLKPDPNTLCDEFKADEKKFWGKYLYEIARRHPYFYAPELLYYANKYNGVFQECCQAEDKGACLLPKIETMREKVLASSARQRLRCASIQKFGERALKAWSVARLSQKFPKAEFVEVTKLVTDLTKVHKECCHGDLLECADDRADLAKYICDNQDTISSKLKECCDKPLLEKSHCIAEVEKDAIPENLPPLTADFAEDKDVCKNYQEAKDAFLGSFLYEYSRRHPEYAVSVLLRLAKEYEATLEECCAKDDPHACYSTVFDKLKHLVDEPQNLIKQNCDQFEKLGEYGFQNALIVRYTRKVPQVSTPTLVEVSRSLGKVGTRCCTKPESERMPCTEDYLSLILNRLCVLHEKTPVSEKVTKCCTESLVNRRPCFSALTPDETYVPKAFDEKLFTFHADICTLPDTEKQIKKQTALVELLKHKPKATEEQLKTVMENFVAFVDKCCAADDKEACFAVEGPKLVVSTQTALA

Binder	Kd [2] [nM]	binding result (Bovine serum albumin)	Kd (Recombinant human EGFR [5]) [nM]	koff (Recombinant human EGFR [5]) [s⁻¹]	kon (Recombinant human EGFR [5]) [M⁻¹ s⁻¹]	other results
B1	138000	–	–	–	–	MFI [1]: 22.1 MFI; koff [2]: 0.0181 s⁻¹; kon [2]: 131 M⁻¹ s⁻¹; MFI [3]: 19.6 MFI
B2	–	–	–	–	–	IC50 of cytotoxicity (sulforhodamine B assay, 72 h), A431 cells [4]: 0.0026 nM; IC50 of cytotoxicity (sulforhodamine B assay, 72 h), MDA-MB-468 cells [4]: 0.0013 nM
B3	–	no binding	252	0.0252	100000	IC50 of cytotoxicity (sulforhodamine B assay, 72 h), A431 cells [4]: 388 nM; IC50 of cytotoxicity (sulforhodamine B assay, 72 h), MDA-MB-468 cells [4]: 420 nM; fold KD relative to cetuximab (Recombinant human EGFR [6]): ~50 fold
B4	–	–	–	–	–	binding result (Recombinant human EGFR [7]): no binding; binding result [8]: no binding
B5	–	no binding	4800	0.00581	1210	–
AEYDFYGPGNEGSW (also called No. 24) [Pep24]	–	no binding	7200	0.103	14300	–
B6	56	–	–	–	–	–
B7	93	–	–	–	–	–
WSGENGPGTFYDYEA (also called EGFR-PEP22; No. 22) [Pep22]	–	no binding	595	0.0259	43500	–
